Experiments:
huPD-L1 = huPD-L1 (Homo sapiens, UniProt Q9NZQ7); experiment: Flow binding to CHO cells stably expressing PD-L1; design: huCTLA4 and huPD-L1, full-length mammalian surface expression constructs were generated; expressed in transfected cells; host or cells: CHO cells, lentiviral transduction, sorted to >98% purity
Description: (§1) Binding of selected immunomodulatory fusion proteins to cognate binding partners was assessed. […] Cells were sorted in a Bio-Rad S3 Cell Sorter (Bio-Rad Corp., USA) to >98% purity. Jurkat/IL2 reporter cells, which endogenously express CD28, were used to detect binding to CD28.
(§2) For staining and analysis by flow cytometry, 100,000 cells of appropriate transfected cells were plated in 96-well round bottom plates. Cells were spun down and resuspended in staining buffer (phosphate buffered saline (PBS), 1% bovine serum albumin (BSA), and 0.1% sodium azide) for 20 minutes to block non-specific binding. […] Primary staining was performed on ice for 45 minutes, before washing cells in staining buffer twice. Phycoerythrin (PE)-conjugated anti-human Fc (Jackson ImmunoResearch, USA) was diluted 1:150, added to cells and incubated another 30 minutes on ice. Cells were then washed twice with 150 μL/well stain buffer, fixed in 2% formaldehyde/PBS, and analyzed on Intellicyt flow cytometer (Intellicyt Corp., USA). PE Mean Fluorescence Intensity (MFI) was calculated for each cell type with FlowJo Version 10 software (FlowJo LLC, USA).
(§3) Binding assays were carried out to assess the specificity and affinity of multivalent proteins to cell-expressed CTLA-4, CD28, and PD-L1 counter structures.
(§4) The EC50 for binding also was determined.

CD28 [1] = biological target: T1, CD28 (Homo sapiens, UniProt P10747); experiment: Jurkat/IL2 + CHO/OKT3 +/- PD-L1 reporter assay: PD-L1-dependent CD28 costimulation; format: cell-based; design: host or cells: Jurkat cells expressing an IL-2-luciferase reporter; settings: Table E22; Jurkat/IL2 + CHO/OKT3/PD-L1; CD80 Conc 5.0 nM
Description: Jurkat cells were then plated at 50 μL/well for a total of 100,000 cells per well.
To each well, 25 μL of test protein was added to the Jurkat cells. […] The Jurkat cells with test or control proteins were incubated for 15 minutes at room temperature. CHO-derived artificial antigen presenting cells (aAPC) displaying transduced cell surface anti-CD3 single chain Fv (OKT3) (i.e., no PD-L1), or OKT3 and PD-L1 (i.e., +PD-L1), were brought to 0.8×10^6 cells/mL, and 25 μL of cells were added to each well, bringing the final volume of each well to 100 μL. […] Jurkat cells and CHO cells were incubated for 5 hours at 37 degrees Celsius in a humidified 5% CO2 incubation chamber. Plates were then removed from the incubator and acclimated to room temperature for 15 minutes. 100 μL of a cell lysis and luciferase substrate solution (BioGlo luciferase reagent, Promega) were added to each well and the plates were incubated on an orbital shaker for 10 minutes. Luminescence was measured with a 1 second per well integration time using a BioTek Cytation luminometer, and a relative luminescence value (RLU) was determined for each test sample.

huCTLA4 = huCTLA4 (Homo sapiens, UniProt P16410); experiment: Flow binding to CHO cells stably expressing CTLA4; design: huCTLA4 and huPD-L1, full-length mammalian surface expression constructs were generated; expressed in transfected cells; host or cells: CHO cells, lentiviral transduction, sorted to >98% purity; settings: CHO cells stably expressing CTLA4, 33.3 nM
Description: as §1, §2, §3, §4

CD28 [2] = biological target: T1, CD28; experiment: Flow binding to Jurkat/IL2 reporter cells (CD28); design: host or cells: Jurkat cells expressing an IL-2-luciferase reporter
Description: as §1, §2, §3, §4

[3] = Table E20, CHO cells stably expressing PD-L1, 33.3 nM
[4] = Table E20, Jurkats (CD28), 33.3 nM
[5] = Table E10, 33.3 nM, Jurkats (CD28)
[6] = Table E10, 33.3 nM, CHO cells stably expressing PD-L1
[7] = Table E25, linker variants, 33.3 nM, Jurkats (CD28)
[8] = Table E25, linker variants, 33.3 nM, CHO cells stably expressing PD-L1

Sequence of huCTLA4 (P16410 36-223): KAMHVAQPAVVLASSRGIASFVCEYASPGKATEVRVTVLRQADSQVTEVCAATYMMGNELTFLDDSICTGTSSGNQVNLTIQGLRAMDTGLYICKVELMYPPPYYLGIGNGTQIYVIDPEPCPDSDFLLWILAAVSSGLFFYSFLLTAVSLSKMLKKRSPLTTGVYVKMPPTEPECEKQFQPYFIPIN
Sequence of huPD-L1 (Q9NZQ7 19-290): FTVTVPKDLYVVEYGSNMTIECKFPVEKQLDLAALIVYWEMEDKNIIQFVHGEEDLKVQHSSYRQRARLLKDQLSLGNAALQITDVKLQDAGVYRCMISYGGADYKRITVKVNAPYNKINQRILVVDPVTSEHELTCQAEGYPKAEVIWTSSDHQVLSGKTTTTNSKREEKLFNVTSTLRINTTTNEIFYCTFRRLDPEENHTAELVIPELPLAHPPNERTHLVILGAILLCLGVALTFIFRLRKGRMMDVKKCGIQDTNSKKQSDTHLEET

| Substance | PD-L1 MFI at 33.3 nM (huPD-L1; [3]) | Relative Luciferase Units (RLU), CD80 Conc 5.0 nM (CD28 [1]) [RLU] | CTLA4 MFI at 33.3 nM (huCTLA4; Table E20) | CD28 MFI at 33.3 nM (CD28 [2]; [4]) | other results |
| --- | --- | --- | --- | --- | --- |
| H18Y/A26E/E35D/M47L/V68M | 24683 | 895 | 20015 |  |  |
| H18Y/A26E/M47L/A71G/D90G |  | 1036 | 25420 | 2047 |  |
| H18Y/A26E/M47L/V68M/A71G | 29730 |  | 21742 | 544 |  |
| H18Y/A26N/E35D/M47F/V68M/A71G/D90G |  |  |  |  | CD28 MFI at 33.3 nM (CD28 [2]; Table E23, CD80 IgV-Fc (inert) at 33.3 nM, Jurkat (CD28)): 82.2; PD-L1 MFI at 33.3 nM (huPD-L1; Table E23, CD80 IgV-Fc (inert) at 33.3 nM, CHO cells stably expressing PD-L1): 26510 |
| H18Y/E35D/M47L/V68M/D90G | 27410 | 852 |  | 3389 |  |
| H18Y/E35D/V68M/A71G/D90G |  | 815 | 24335 | 2724 |  |
| H18Y/M47L/V68M/A71G/D90G |  | 986 | 22235 |  |  |
| Inert Fc |  |  |  |  | CD28 MFI at 33.3 nM (CD28 [2]; [5]): 23; PD-L1 MFI at 33.3 nM (huPD-L1; [6]): 41; CTLA4 MFI at 33.3 nM (huCTLA4; Table E10): 65.7 |
| Inert Fc (control) |  |  |  |  | CD28 MFI at 33.3 nM (CD28 [2]; [7]): 20; PD-L1 MFI at 33.3 nM (huPD-L1; [8]): 58; CTLA4 MFI at 33.3 nM (huCTLA4; Table E25, linker variants): 40 |
| WT CD80 ECD-Fc (Abcam) |  |  |  |  | CD28 MFI at 33.3 nM (CD28 [2]; Table E19, Jurkats (CD28), 33.3 nM): 709; PD-L1 MFI at 33.3 nM (huPD-L1; Table E19, CHO cells stably expressing PD-L1, 33.3 nM): 128 |
| WT CD80 ECD-Fc H22.6 |  |  |  |  | CD28 MFI at 33.3 nM (CD28 [2]; [5]): 43; PD-L1 MFI at 33.3 nM (huPD-L1; [6]): 46.3 |

More lines, main results first:

| PD-L1 MFI at 33.3 nM (huPD-L1; [3]) | Relative Luciferase Units (RLU), CD80 Conc 5.0 nM (CD28 [1]) [RLU] | CTLA4 MFI at 33.3 nM (huCTLA4; Table E20) | CD28 MFI at 33.3 nM (CD28 [2]; [4]) | Substance | other results |
| --- | --- | --- | --- | --- | --- |
| 28546 | 976 | 25404 |  | H18Y/A26E/E35D/M47L/V68M/A71G |  |
| 13327 | 851 | 22983 |  | H18Y/E35D/M47L/A71G/D90G |  |
| 29944 | 1028 | 19892 |  | H18Y/E35D/M47L/V68M/A71G/D90G |  |
| 6377 |  |  | 42.3 | WT CD80 ECD-Fc: wild-type CD80 ECD (SEQ ID NO:2)-Fc; R&D Systems where stated [reference compound] | CD28 MFI at 33.3 nM (CD28 [2]; Table E3, 33.3 nM): 7627; CD28 MFI at 33.3 nM (CD28 [2]; Table E4, 33.3 nM, Jurkat cells (CD28)): 18035; CD28 MFI at 33.3 nM (CD28 [2]; Table E11, Jurkats (CD28), 33.3 nM): 31; CD28 MFI at 33.3 nM (CD28 [2]; Table E14, Jurkats (CD28), 33.3 nM): 30; CD28 MFI at 33.3 nM (CD28 [2]; Table E16, consensus variants, Jurkats (CD28), 33.3 nM): 46; CD28 MFI at 33.3 nM (CD28 [2]; [7]): 37; EC50 (CD28 [2]; Table E31, flow binding to Jurkats (CD28), read-out: CD28 EC50): 164 nM; PD-L1 MFI at 33.3 nM (huPD-L1; Table E3, 33.3 nM): 7943; PD-L1 MFI at 33.3 nM (huPD-L1; Table E4, 33.3 nM, CHO cells stably expressing PD-L1): 11871; PD-L1 MFI at 33.3 nM (huPD-L1; Table E11, CHO cells stably expressing PD-L1, 33.3 nM): 52; PD-L1 MFI at 33.3 nM (huPD-L1; Table E14, CHO cells stably expressing PD-L1, 33.3 nM): 68; PD-L1 MFI at 33.3 nM (huPD-L1; Table E16, consensus variants, CHO cells stably expressing PD-L1, 33.3 nM): 58; PD-L1 MFI at 33.3 nM (huPD-L1; [8]): 35; EC50 (huPD-L1; Table E31, flow binding to CHO cells stably expressing PD-L1): 31.2 nM |
